Measured values as given in patent publication US20240261333A1 (published 2024).

Tests used:
GANAB = target: T1, GANAB (human, UniProt Q14697 29-944); assay: co-IP with anti-FLAG, mass spectrometry; lysate of cells with N-FLAG B3GNT2
T1 construct: also called NP_938148.1 (+1)
T1 sequence (looked up): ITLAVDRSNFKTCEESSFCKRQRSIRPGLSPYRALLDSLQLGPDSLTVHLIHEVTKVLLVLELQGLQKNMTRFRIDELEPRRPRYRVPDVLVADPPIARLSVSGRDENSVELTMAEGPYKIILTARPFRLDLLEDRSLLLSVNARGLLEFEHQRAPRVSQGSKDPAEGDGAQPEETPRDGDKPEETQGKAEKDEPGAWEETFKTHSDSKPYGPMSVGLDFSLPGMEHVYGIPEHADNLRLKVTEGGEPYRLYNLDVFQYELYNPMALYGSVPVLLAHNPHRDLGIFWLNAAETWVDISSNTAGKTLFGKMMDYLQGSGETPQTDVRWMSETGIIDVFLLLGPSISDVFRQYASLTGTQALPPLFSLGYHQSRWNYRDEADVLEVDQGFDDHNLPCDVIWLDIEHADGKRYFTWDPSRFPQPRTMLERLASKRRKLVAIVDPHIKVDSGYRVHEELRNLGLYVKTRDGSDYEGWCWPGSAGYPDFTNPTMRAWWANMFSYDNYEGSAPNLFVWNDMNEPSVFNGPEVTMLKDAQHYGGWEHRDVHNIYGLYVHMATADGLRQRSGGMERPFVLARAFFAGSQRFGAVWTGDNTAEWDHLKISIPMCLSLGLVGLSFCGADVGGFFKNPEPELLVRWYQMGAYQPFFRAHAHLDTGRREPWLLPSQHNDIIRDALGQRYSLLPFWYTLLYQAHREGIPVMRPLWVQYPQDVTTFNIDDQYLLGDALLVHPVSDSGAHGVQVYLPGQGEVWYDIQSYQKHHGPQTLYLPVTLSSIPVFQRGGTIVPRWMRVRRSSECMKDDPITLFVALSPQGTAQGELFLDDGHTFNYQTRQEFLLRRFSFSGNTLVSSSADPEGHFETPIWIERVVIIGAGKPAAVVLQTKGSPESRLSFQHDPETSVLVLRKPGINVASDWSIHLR
Protocol: (§1) Cells were plated in 10-cm cell culture dishes and grown to 60-80% confluency. For each condition, two biological replicates were harvested for co-IP. Cells were washed with PBS and 4 mL of lysis buffer (20 mM HEPES, 1% Triton X-100, 150 mM NaCl, 1 mM EDTA, and 10% glycerol) containing protease inhibitor cocktail was added. Cells were scraped and lysate was incubated at 4° C. under rotary agitation for 1 h. Lysate was centrifuged at 14,000×g for 10 min at 4° C. Supernatant was transferred to a new tube and an aliquot was taken as the input. […] For Western blots, 10 μg/mL Chicken Anti-FLAG (Aves labs ET-DY100) and IgY control (R&D Systems AB-101-C) antibodies were biotinylated (Thermo Fisher Scientific 90407) and added to the respective conditions. Lysates with antibodies were incubated at 4° C. under rotary agitation overnight. For each mL of lysate, 50 μL of Pierce Protein A/G Magnetic Beads (Mass spectrometry; Thermo Fisher Scientific 88803) or Pierce Streptavidin Magnetic Beads (Western blot; Thermo Fisher Scientific 88817) was washed twice with lysis buffer. Lysates with antibodies were added to the beads and incubated at 4° C. under rotary agitation for 4 h. Beads were washed with lysis buffer 3 times and resuspended in lysis buffer for storage.
(§2) Magnetic beads were resuspended in 100 mM Tris pH 7.8, reduced, alkylated and digested with trypsin at 37° ° C. overnight. This solution was subjected to solid phase extraction to concentrate the peptides and remove unwanted reagents followed by injection onto a Shimadzu HPLC with fraction collector. Eight fractions were collected and after concentration were injected on a Waters NanoAcquity HPLC equipped with a self-packed Aeris 3 μm C18 analytical column 0.075 mm by 20 cm, (Phenomenex). Peptides were eluted using standard reverse-phase gradients. The effluent from the column was analyzed using a Thermo Orbitrap Elite mass spectrometer (nanospray configuration) operated in a data dependent manner for 54 minutes. The resulting fragmentation spectra were correlated against the known database using Proteome Discover 1.4 (Thermo Fisher Scientific).

PJA2 = target: T2, PJA2 (human, UniProt O43164 2-708); assay: as above
T2 construct: also called NP_055634.3
T2 sequence (looked up): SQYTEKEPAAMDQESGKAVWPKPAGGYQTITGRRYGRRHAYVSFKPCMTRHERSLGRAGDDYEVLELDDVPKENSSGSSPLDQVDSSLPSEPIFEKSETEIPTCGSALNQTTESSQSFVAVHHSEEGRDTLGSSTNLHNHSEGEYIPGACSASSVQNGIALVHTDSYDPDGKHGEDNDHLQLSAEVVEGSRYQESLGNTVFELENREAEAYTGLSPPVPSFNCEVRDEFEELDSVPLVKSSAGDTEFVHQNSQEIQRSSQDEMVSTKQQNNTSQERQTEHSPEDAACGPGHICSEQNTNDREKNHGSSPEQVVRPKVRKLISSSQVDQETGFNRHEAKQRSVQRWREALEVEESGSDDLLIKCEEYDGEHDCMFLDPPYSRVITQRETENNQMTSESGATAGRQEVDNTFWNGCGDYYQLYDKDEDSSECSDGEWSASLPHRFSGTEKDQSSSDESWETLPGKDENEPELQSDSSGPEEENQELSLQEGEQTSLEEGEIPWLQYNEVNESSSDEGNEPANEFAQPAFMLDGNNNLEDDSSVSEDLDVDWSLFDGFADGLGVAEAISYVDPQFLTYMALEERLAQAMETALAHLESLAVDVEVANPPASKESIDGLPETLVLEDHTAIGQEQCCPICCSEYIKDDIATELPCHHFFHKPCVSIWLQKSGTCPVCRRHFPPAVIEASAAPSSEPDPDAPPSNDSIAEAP
Protocol: as §1, §2

co-IP mass spectrometry count (GANAB): 0
co-IP mass spectrometry count (PJA2): 0
B1: N-terminal FLAG tagged B3GNT2 (enzyme, human, UniProt Q9NY97 1-397, looked up)
chain: MSVGRRRIKLLGILMMANVFIYFIMEVSKSSSQEKNGKGEVIIPKEKFWKISTPPEAYWNREQEKLNRQYNPILSMLTNQTGEAGRLSNISHLNYCEPDLRVTSVVTGFNNLPDRFKDFLLYLRCRNYSLLIDQPDKCAKKPFLLLAIKSLTPHFARRQAIRESWGQESNAGNQTVVRVFLLGQTPPEDNHPDLSDMLKFESEKHQDILMWNYRDTFFNLSLKEVLFLRWVSTSCPDTEFVFKGDDDVFVNTHHILNYLNSLSKTKAKDLFIGDVIHNAGPHRDKKLKYYIPEVVYSGLYPPYAGGGGFLYSGHLALRLYHITDQVHLYPIDDVYTGMCLQKLGLVPEKHKGFRTFDIEEKNKNNICSYVDLMLVHSRKPQEMIDIWSQLQSAHLKC
notes: Bait of the co-IP; pulled down with mouse anti-FLAG (Millipore Sigma F3165) from cell lysate; also called N-FLAG B3GNT2; N-term FLAG; not shown: N-terminal FLAG tag
